Data taken from patent US20240150445A1 (DUKE UNIVERSITY, published 2024).

Target: Env 10.17 gp120 (HIV-1)
Test: direct-binding ELISA (OD450) on CH848.d0949.10.17 gp120 [panel A]

B1: DH270.IA4 (antibody, V domains shown)
VH: QVQLVQSGAEVKKPGASVKVSCKASGYTFTDYYIHWVRQAPGQGLEWMGWINPNTGRTNYAQKFQGRVTMTRDTSISTAYMELSRLRSDDTAVYYCARGGWIGLYYDSSGYPNFDYWGQGTLVTVSS
VL: QSALTQPASVSGSPGQSITISCTGTSYDVGSYNLVSWYQQHPGKAPKLMIYEVSKRPSGVSNRFSGSKSGNTASLTISGLQAEDEADYYCCSYAGSSTVIFGGGTKLTVL
notes: Inferred intermediate, recombinant IgG; also called DH270.I4
EC50 (read off the curve): ~2 µg/mL
